Experimental data taken from patent US6403325B1, “Methods and compounds for treating alzheimer's disease” (priority 1997, dated 2002).

How the values were obtained:
[1] = system: C57MG mammary epithelial cell line; experiment: Aβ levels in C57MG cells infected with Wnt retrovirus; assay type: cell-based, mouse; conditions: C57MG cells infected with retrovirus expressing the Wnt protein
[2] = system: PC12 cells; experiment: β-catenin levels in Wnt1-expressing PC12 lines; assay type: cell-based; conditions: 12 independent Wnt1-expressing PC12 lines
Text: (§1) A retrovirus encoding the Wnt1 protein was introduced into PC12 cells as described in Mol. Cell. Biol. 14:466, (1995), and twelve independent Wnt1-expressing lines were established. Wnt1 expression in the lines was examined by measuring β-catenin levels.

[3] = system: PC12 cells; experiment: Aβ levels by ELISA in Wnt1-expressing PC12 lines; assay type: cell-based; conditions: 12 independent Wnt1-expressing PC12 lines
Text: as §1

| Molecule | Aβ levels [1] | β catenin stabilization [2] | levels of Aβ peptide in the cell lines ([3]; ELISA) | Aβ levels in the culture media ([3]; culture media) |
| --- | --- | --- | --- | --- |
| Wnt5a: Wnt family member expressed in C57MG cells from a Wnt5a retrovirus (protein, UniProt P22725 62-380, looked up) Protein Wnt-5a: IIGAQPLCSQLAGLSQGQKKLCHLYQDHMQYIGEGAKTGIKECQYQFRHRRWNCSTVDNTSVFGRVMQIGSRETAFTYAVSAAGVVNAMSRACREGELSTCGCSRAARPKDLPRDWLWGGCGDNIDYGYRFAKEFVDARERERIHAKGSYESARILMNLHNNEAGRRTVYNLADVACKCHGVSGSCSLKTCWLQLADFRKVGDALKEKYDSAAAMRLNSRGKLVQVNSRFNSPTTQDLVYIDPSPDYCVRNESTGSLGTQGRLCNKTSEGMDGCELMCCGRGYDQFKTVQTERCHCKFHWCCYVKCKKCTEIVDQFVCK | did not show increased Aβ levels | – | – | – |
| Wnt1: Wnt1 protein, member of the Wnt family, expressed in cells from a retrovirus encoding it (protein, UniProt P04426 28-370, looked up) Proto-oncogene Wnt-1: ANSSGRWWGIVNIASSTNLLTDSKSLQLVLEPSLQLLSRKQRRLIRQNPGILHSVSGGLQSAVRECKWQFRNRRWNCPTAPGPHLFGKIVNRGCRETAFIFAITSAGVTHSVARSCSEGSIESCTCDYRRRGPGGPDWHWGGCSDNIDFGRLFGREFVDSGEKGRDLRFLMNLHNNEAGRTTVFSEMRQECKCHGMSGSCTVRTCWMRLPTLRAVGDVLRDRFDGASRVLYGNRGSNRASRAELLRLEPEDPAHKPPSPHDLVYFEKSPNFCTYSGRLGTAGTAGRACNSSSPALDGCELLCCGRGHRTRTQRVTERCNCTFHWCCHVSCRNCTHTRVLHECL | increase in Aβ levels | positively correlated with the degree of β catenin stabilization | positively correlated with Wnt1 expression | positive correlation with Wnt1 expression |
